According to the Human Domainome abundance scans (Beltran et al. 2025):

B1: SH3 and PX domain-containing protein 2B, residues 155 to 209; numbered along this chain, A1X283 (parent)
chain: EQYVVVANYQKQESSEISLSVGQVVDIIEKNESGWWFVSTAEEQGWVPATCLEGQ
B2: WW domain-containing transcription regulator protein 1, residues 116 to 162; numbered along this chain, Q9GZV5 (parent)
chain: QSYDVTDELPLPPGWEMTFTATGQRYFLNHIEKITTWQDPRKAMNQP

Variants of: B1
Assay: abundance fitness (aPCA) (normalised: wild type 0, dead -1); higher = more abundant; growth selection in yeast, the domain comes from the species named
Settings: Homo sapiens

Abundance fitness, by site and new letter:
E1: L -0.001 | S -0.177 | M -0.329 | V -0.035 | G -0.315 | D -0.108 | A -0.364 | I -0.299 | K 0.042 | R -0.469
Y3: N -0.268 | A 0.106 | I -0.175 | K -0.035 | H -0.537 | P -0.585 | R -0.127 | V -0.073 | D -0.162 | L -0.237 | S 0.039 | T -0.06 | C -0.349 | Q -0.17 | F -0.053 | W -0.324 | G 0.003 | E -0.114
V5: M -0.418 | G -0.37 | I -0.379 | N -0.946 | F -0.875 | E -0.939 | H -1.08 | C -0.108 | K -0.552 | L -0.919 | D -0.999
V4: E 0.003 | S 0.083 | Y 0.046 | L 0.075 | R 0.077 | G -0.265 | A -0.047 | I 0.082 | H -0.308 | W -0.271 | T 0.193 | F -0.061 | N -0.139 | C -0.01 | D -0.148 | M -0.463 | Q -0.018
Q2: E -0.328 | H -0.178 | D -0.378 | Y -0.29 | T -0.148 | A -0.247 | I -0.347 | P -0.068 | W -0.415 | G -0.082 | F -0.185 | C -0.086 | R -0.167 | N 0.13 | S -0.058 | V 0.012 | K -0.062 | L -0.189

Variants of: B2
Assay: as above
Settings: Homo sapiens

Abundance fitness: each site, then its substitutions
P40: H -0.988 | E -0.757 | S -0.983 | A -0.767 | L -0.987 | I -0.97 | K -0.834 | D -0.914 | Q -0.774 | W -1 | T -0.857 | F -1.09 | Y -1.07 | C -0.92 | R -0.999 | N -0.796
P47: N -0.84 | L 0.053 | S -0.125 | A -0.06 | T -0.148 | H -0.577 | G -0.677
Q46: H -0.394 | V -0.018 | R -0.156 | S -0.053 | W -0.046 | K -0.164 | C -0.021 | N -0.067 | L -0.022 | A -0.138 | Y -0.221 | F 0.04 | G -0.058 | I -0.044 | P 0.026 | E 0.037 | D 0.058 | T -0.058 | M -0.098
M44: W -0.15 | S -0.089 | N -0.215 | P -0.068 | H -0.085 | I -0.244 | C -0.02 | Q -0.014 | Y 0.014 | D 0.076 | E 0.03 | K -0.033 | R -0.06 | G 0.004 | F 0.068 | L -0.012 | A 0.005 | V -0.045 | T -0.028
R41: G -0.628 | Y -1.11 | A -0.5 | E -0.73 | C -0.689 | W -0.689 | M -0.703 | Q -0.447 | I -0.603 | L -0.747 | H -0.719 | V -0.518 | T -0.4 | N -0.505 | P -0.785 | K -0.688 | D -0.806 | F -0.902
D39: C -0.572 | T -0.761 | K -0.736 | Q -0.911 | S -0.719 | E -0.536 | R -0.452 | M -0.789 | F -0.618 | V -0.721 | Y -0.709 | H -0.202 | G -0.747 | P -0.588 | I -0.469 | L -0.599
T35: G -0.493 | H -0.56 | L -0.7 | E -0.382 | Y -0.413 | M -0.47 | D -0.728 | N -0.57 | W -0.581 | F -0.566 | P -0.899 | C -0.236 | S -0.072 | Q -0.675 | K -0.433 | I -0.419
W37: P -0.51 | L -0.296 | R -0.392 | N -0.364 | V -0.348 | F -0.047 | M -0.265 | E -0.244 | Y -0.073 | S -0.324 | Q -0.328 | C -0.52 | K -0.305 | D -0.481 | A -0.376 | H -0.402
T36: V -0.736 | G -0.775 | H -1.03 | C -0.305 | Q -0.376 | A -0.377 | M -0.532 | F -1.05 | D -0.816 | S -0.224 | K -0.954 | I -0.831 | L -1.02 | W -0.986 | E -0.722 | N -0.754 | R -0.858 | Y -0.992
A43: E -0.018 | D 0.071 | C -0.056 | V -0.025 | T 0.027 | N 0.046 | W 0.086 | F -0.016 | P -0.014 | M -0.038 | Y -0.127 | K -0.006 | I -0.073 | S 0.01 | L -0.008 | G -0.013 | Q -0.056
K42: I -0.038 | A -0.113 | F -0.128 | T -0.073 | Y -0.164 | L -0.111 | W -0.304 | G -0.141 | C -0.097 | P -0.161 | E -0.052 | N 0.045 | S -0.203 | M -0.202 | V -0.166 | D -0.26 | H -0.061 | R -0.111 | Q -0.105
K33: G 0.122 | H -0.2 | A -0.209 | V -0.905 | P -0.942 | C -0.198 | Q -0.139 | L -0.558 | D -0.517 | T -0.483 | Y -0.733 | I -1.01 | S -0.177 | F -0.683 | R -0.063 | M -0.284 | N -0.041
Q38: G -0.264 | M -0.044 | W -0.112 | F -0.086 | R -0.017 | A -0.103 | H -0.096 | T -0.095 | E -0.117 | V -0.108 | N -0.104 | P -0.879 | K -0.037 | L -0.031 | C -0.085 | I 0.005 | S -0.109 | D -0.129
E32: T -0.017 | P -0.805 | S -0.02 | V -0.19 | W 0.094 | R 0.004 | Y 0.054 | M 0.072 | Q 0.033
I34: D -0.454 | F 0.014 | L -0.089 | H -0.324 | Y -0.172 | N -0.343 | Q -0.158 | E -0.265 | M -0.15 | C -0.078 | G -0.634 | A -0.304 | R -0.223 | K -0.35 | V -0.102 | T -0.047 | P -0.813
N45: D -0.092 | K -0.052 | Y 0.039 | A -0.018 | Q -0.223 | I -0.084 | E -0.125 | H -0.09 | G -0.04 | R -0.109 | S -0.093 | C -0.089 | T -0.044 | V -0.056 | P -0.135 | W -0.043 | L -0.118 | M -0.023
